± gives the standard deviation.

A short description of the data set: protein stability index of a GFP-peptide fusion (GPS, HEK-293T) (PSI 1-6); higher = more stable.
Setting [1] is: treatment: DMSO, c terminus: a fixed tail appended.
The mark [2] stands for this setting: treatment: MLN4924 1 uM, 8 h, c terminus: a fixed tail appended.
Setting [3] is: treatment: DMSO, c terminus: native.
Setting [4] is: treatment: MLN4924 1 uM, 8 h, c terminus: native.
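Further: 24-mer peptide tiles fused after GFP, lentivirally expressed, FACS-sorted into six equal bins by GFP/DsRed ratio, decoded by Illumina sequencing, PSI is the read-weighted mean bin number.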

Take VCGKSFSRTTCLFLHLRTHTEERP [ZNF8]: the protein stability index is, setting by setting: under setting [1], 2.23 ± 0.56; under setting [2], 1.93 ± 0.38.

For the sequence VEVLGPYEPLLSRVQAALVWERPA [RETREG3], the protein stability index was 2.37 ± 0.39 under setting [1] and 2.48 ± 0.24 under setting [2].

On to TAYIRVKVDGPRSPSYGRSRSRSR [SRSF1], for which the protein stability index reads like this: under setting [1], 3.75 ± 0.21; under setting [2], 4 ± 0.29.

For the sequence SGRPHLPGKKKIRWDPVRRRFIQS [KLHDC10], the protein stability index is, setting by setting: under setting [1], 3.35 ± 0.26; under setting [2], 3.21 ± 0.4.

In the case of RNPDQRKESLCISITVSKVDKDQP [FBXO34], the protein stability index under setting [1] is 3.6 ± 0.41 and the protein stability index under setting [2] stood at 3.88 ± 0.24.

As for DGNGGQFREVYVGKETMCTVDGLH [TRIM9], the protein stability index is, setting by setting: under setting [1], 3.94 ± 0.37; under setting [2], 4.11 ± 0.28.

Regarding ELRPRRGRCGPQAARAAGRDVAAE [POMT2], the protein stability index is 3.58 ± 0.37 under setting [1] and 3.67 ± 0.086 under setting [2].

On to PEDGRIFAQRTFDYELLQMLQIVV [PCDHGC5], for which the protein stability index reads like this: under setting [1], 2.19 ± 0.4; under setting [2], 2.3 ± 0.36.

For the sequence TQEPIFTFTASFSGKVFPFFAVWK [TRIM15], the protein stability index runs as follows: under setting [1], 3.19 ± 0.36; under setting [2], 2.89 ± 0.66.

For the sequence TRCKSSEEKKPGELKRLVESRRQQ [TRIM39], the protein stability index was 5 ± 0.32 under setting [1] and 5.02 ± 0.27 under setting [2].

Regarding EMEVMRRQLYAVNRRLRALEEQGA [FATE1], the protein stability index under setting [1] worked out at 3.65 ± 0.29 and the protein stability index under setting [2] is 3.68 ± 0.41.

Take MSKLLKRQNDILQVVSQGWKYFKG [CD207]: the protein stability index came out at 2.28 ± 0.36 under setting [1] and 2.28 ± 0.082 under setting [2].

Consider LLLFLVFVIVLFFIYHFMQAEEGN [EMD], for which the protein stability index came to 2.23 ± 0.15 under setting [1] and 2.42 ± 0.15 under setting [2].

Take TGEIMHALKMTWHVHCFTCAACKT [PDLIM7]: the protein stability index by setting is: under setting [1], 2.69 ± 0.33; under setting [2], 2.27 ± 0.25.

Consider LLPKSRENYLNRCMDQERLRREST [FCHO1], for which the protein stability index by setting is: under setting [1], 3.31 ± 0.17; under setting [2], 3.21 ± 0.16.

On to EKGILTTEKQNFLLFDMTTHPVTN [GOLPH3L], for which the protein stability index runs as follows: under setting [1], 3.69 ± 0.32; under setting [2], 3.61 ± 0.27.

For QLSPSPTPASQSPKKPPAKDPLAD [SNAP91], the protein stability index runs as follows: under setting [1], 5.49 ± 0.26; under setting [2], 5.53 ± 0.29.

Turning to YLEVLETMDNKKGRRYEAVKWMVV [CLCN6], the protein stability index is 2.4 ± 0.72 under setting [1] and 2.25 ± 0.28 under setting [2].

In the case of TVTSVSCCHGNTLLAVRSVTDEPV [NEK8], the protein stability index was found to be 3.21 ± 0.23 under setting [1] and 3.14 ± 0.33 under setting [2].

Turning to HGEGNHIYAYDAKIEIQTLTGLFK [CASP6], the protein stability index by setting is: under setting [1], 2.17 ± 0.22; under setting [2], 2.12 ± 0.33.

In the case of EGRKKAFSTCGSHLTVVAIFYGSG [OR3A1], the protein stability index runs as follows: under setting [1], 2.77 ± 0.4; under setting [2], 3.15 ± 0.38.

Turning to VWDLNMEARPIETYQVHDYLRSKL [PPP2R2C], the protein stability index turned out to be 2.42 ± 0.43 under setting [1] and 2.55 ± 0.095 under setting [2].

Regarding SMVPPSPAMAASKALGSDLDSSLA [SNAP91], the protein stability index reads like this: under setting [1], 4.59 ± 0.097; under setting [2], 4.6 ± 0.26.

On to KRKRVDVEESEASSSVSISHSASA [LMNB1], for which the protein stability index reads like this: under setting [1], 5.29 ± 0.29; under setting [2], 5.42 ± 0.17.

In the case of ALQSRAAQRHRGSAKDGGPQPPDA [PLEKHN1], the protein stability index reads like this: under setting [1], 4.57 ± 0.49; under setting [2], 4.96 ± 0.34.

Regarding EPSSPASLTDSVNHHSPGGSSDAS [ESRRG], the protein stability index turned out to be 5.47 ± 0.15 under setting [1] and 5.51 ± 0.15 under setting [2].

With QTLDKKLMSDLRRKRTAHERAKEL [INTS4], the protein stability index reads like this: under setting [1], 4.22 ± 0.27; under setting [2], 4.26 ± 0.25.

For LLYTSLPDFCHKFLPGYVGGIQEG [DHCR7], the protein stability index reads like this: under setting [1], 2.58 ± 0.58; under setting [2], 2.71 ± 0.63.

Take QQTPVGTPKDKRVSNTPLRTVDGS [PALM]: the protein stability index is, setting by setting: under setting [1], 5.07 ± 0.13; under setting [2], 5.03 ± 0.15.

With TNLVLPSNGSMHNYCPQQTKITSA [EDNRA], the protein stability index is, setting by setting: under setting [1], 3.75 ± 0.13; under setting [2], 3.63 ± 0.14.

In the case of IAQCQDSPTSGKFRRGSGSACSLL [MCOLN1], the protein stability index runs as follows: under setting [1], 3.4 ± 0.2; under setting [2], 3.63 ± 0.2.

Take LEDLESELDDPGQPVSLRRRKREV [ZNF24]: the protein stability index turned out to be 5.38 ± 0.09 under setting [1] and 5.49 ± 0.16 under setting [2].

SPEVESLPVASSSTLLPLAPSNST [NFE2L1]: the protein stability index by setting is: under setting [1], 5.04 ± 0.23; under setting [2], 5.27 ± 0.13.

For FIDKEDLKDTYASLGKTNVKDDEL [MYL5], the protein stability index is, setting by setting: under setting [1], 4.8 ± 0.15; under setting [2], 4.92 ± 0.19.

On to TQQFKAEKLKEKLKMKEREEAWVK [PPP2R5C], for which the protein stability index is 3.26 ± 0.64 under setting [1] and 3.72 ± 0.62 under setting [2].

Regarding VDADAGHNAWLSYSLLPQSTAPGL [PCDHGC5], the protein stability index was determined as 2.87 ± 0.33 under setting [1] and 3 ± 0.26 under setting [2].

As to PGFYATYESTLFEDQVPALEAPED [MIA2], the protein stability index under setting [1] turned out to be 5.18 ± 0.27 and the protein stability index under setting [2] is 4.92 ± 0.36.

Regarding LQEKQKNEKLISLQEQLQRFLKK [TAF7L], the protein stability index reads like this: under setting [3], 4.51 ± 0.29; under setting [4], 4.6 ± 0.15.

As for QRMRVPEKLKVAPPNADLEQGFQE [MFF], the protein stability index runs as follows: under setting [1], 4.82 ± 0.19; under setting [2], 4.74 ± 0.092.

Take SDLNTNNLLFKPPVESHIQKNKKI [KMT2E]: the protein stability index by setting is: under setting [1], 4.31 ± 0.16; under setting [2], 4.45 ± 0.39.

In turn, FDVHPPLGKMLIGLAGYLSGYDGT [POMT2] returned a protein stability index under setting [1] of 2.18 ± 0.19 and a protein stability index under setting [2] of 2.17 ± 0.13.

For PANVDASVMFRKWRDSKGKDKEYA [UBE2R2], the protein stability index is 4.09 ± 0.27 under setting [1] and 3.95 ± 0.24 under setting [2].

In the case of SMTAGVSEREANDALNAYVCKGLP [INTS3], the protein stability index is 4.37 ± 0.16 under setting [1] and 4.38 ± 0.14 under setting [2].

In the case of TDGRSPRRSRDPGYDHLWDETLSS [PLEKHN1], the protein stability index amounted to 4.33 ± 0.24 under setting [1] and 4.45 ± 0.23 under setting [2].

Turning to DSEEPVSTHQEAENEKDRADQTVL [CHGB], the protein stability index runs as follows: under setting [1], 5.29 ± 0.56; under setting [2], 5.65 ± 0.27.

In the case of LDRDALKQSLVVAVQDHGQPPLSA [PCDHGA10], the protein stability index by setting is: under setting [1], 4.49 ± 0.19; under setting [2], 4.678 ± 0.044.

For the sequence VFYLWSAIEIFRYSFYMLTCIDMD [HACD3], the protein stability index reads like this: under setting [1], 3.13 ± 0.15; under setting [2], 3.5 ± 0.47.

Turning to FPAVTVEVKSSIAGSSTWERYFIP [SLC29A1], the protein stability index runs as follows: under setting [1], 2.61 ± 0.88; under setting [2], 2.4 ± 0.28.

Take GVSALCAICGDRATGKHYGASSCD [HNF4A]: the protein stability index is 3.6 ± 0.2 under setting [1] and 3.75 ± 0.45 under setting [2].

In the case of AALNALQPPEFRNESSLASTLKTL [VMA21], the protein stability index came out at 3.44 ± 0.2 under setting [1] and 3.51 ± 0.18 under setting [2].

As for TARAHPAKARDLYKGRQLQGCPGA [SMOC2], the protein stability index by setting is: under setting [1], 3.23 ± 0.64; under setting [2], 4.41 ± 0.57.

Sequence LVAGIGFYQHLLLYIQSHYQLELQ [SMG5] yielded a protein stability index under setting [1] of 2.99 ± 0.5 and a protein stability index under setting [2] of 3.11 ± 0.43.

PPITEVESQVFSEKLATDTSTFEA [ZNF232]: the protein stability index by setting is: under setting [1], 5.33 ± 0.2; under setting [2], 5.26 ± 0.083.

With DGSVLLIPRTMADQQARRQERKPK [NFE2L1], the protein stability index under setting [1] turned out to be 3.5 ± 0.14 and the protein stability index under setting [2] is 3.63 ± 0.31.

Consider FVATFLRYAVVLNATWLVNSAAHL [SCD], for which the protein stability index reads like this: under setting [1], 3.31 ± 0.7; under setting [2], 2.97 ± 0.33.

Take PNYTMEGERPEEGVAGGLNRNQGL [TCF25]: the protein stability index stood at 5.22 ± 0.15 under setting [1] and 5.22 ± 0.37 under setting [2].

Consider RFQAMEETHLRHMKALLGSYAHSV [FCHO1], for which the protein stability index was 2.38 ± 0.37 under setting [1] and 2.38 ± 0.31 under setting [2].

As to PSLAVNLADPYRSLKAPGARGPGP [JUNB], the protein stability index was 4.01 ± 0.29 under setting [1] and 3.83 ± 0.17 under setting [2].

For AQEEPWEKKESLGAAQEALSIQLQ [ZNF232], the protein stability index runs as follows: under setting [1], 4.91 ± 0.4; under setting [2], 5 ± 0.15.

FGLAIEVEGEQQAWFGFAGTPGYL [CAMK2A] showed a protein stability index under setting [1] of 2.68 ± 0.92 and a protein stability index under setting [2] of 2.92 ± 0.65.

As for VPGHQTPSDLDQFSDSSLIEDSQA [LURAP1L], the protein stability index runs as follows: under setting [1], 5.39 ± 0.15; under setting [2], 5.41 ± 0.17.

For the sequence LRGKECCINRFQQVESRWGYSGTS [BTBD1], the protein stability index is, setting by setting: under setting [1], 2.47 ± 0.18; under setting [2], 2.72 ± 0.16.

LFAGFLPRIIKAAPSCAIMISTYE [SLC25A39] gave a protein stability index under setting [1] of 2.8 ± 0.31 and a protein stability index under setting [2] of 3.21 ± 0.75.

As for PNLVNLIEVFRRKRKMHLVFEYCD [CDKL4], the protein stability index by setting is: under setting [1], 2.06 ± 0.64; under setting [2], 2.07 ± 0.3.

As for IATATEIAYYSYIYSVVDLGMYQK [SLC19A2], the protein stability index under setting [1] was determined as 3.05 ± 0.33 and the protein stability index under setting [2] amounted to 2.94 ± 0.51.

Turning to EGSSQEDEDLGLSEGSSQDSGED [SPANXN3], the protein stability index worked out at 5.55 ± 0.24 under setting [3] and 5.56 ± 0.19 under setting [4].

Turning to PDTELKRYFGARAILGEQRPRQRQ [TCF25], the protein stability index stood at 4.25 ± 0.11 under setting [1] and 4.11 ± 0.18 under setting [2].

Take QILLEWCRSKTLGYQHVDLQNFSS [SMTNL2]: the protein stability index under setting [1] worked out at 2.72 ± 0.56 and the protein stability index under setting [2] stood at 2.49 ± 0.43.

HQCHKVIRGRYLVALGHAYHPEEF [PDLIM7]: the protein stability index by setting is: under setting [1], 2.17 ± 0.29; under setting [2], 2.2 ± 0.62.

For the sequence MGERKGVNKYYPPDFNPEKHGSLN [YJU2B], the protein stability index was determined as 4.11 ± 0.4 under setting [1] and 4.18 ± 0.12 under setting [2].

With PKAQPQTWKSGKQTMLSHYRPFYV [TRIM29], the protein stability index runs as follows: under setting [1], 2.57 ± 0.17; under setting [2], 2.06 ± 0.39.

Consider WFKTRRKEMTQKLEALHLEALCEE [DENND6A], for which the protein stability index is, setting by setting: under setting [1], 3.29 ± 0.27; under setting [2], 3.88 ± 0.42.

The record behind these values is the supplement of paper PMC10567573.
